For series [1], the system named is HeLa Kyoto. Description: solubility in G1/S (NP-40 vs SDS abundance) (log2 ratio); higher = more soluble. As to conditions: cell cycle stage: G1/S.
Series [2] concerns HeLa Kyoto. Briefly: solubility change mitosis vs G1/S (difference of NP-40 vs SDS log2 ratios) (log2 ratio difference); higher = more soluble in mitosis.

Three sequences from the supplement of paper PMC5998384 can be followed below.
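Throughout, for solubility change mitosis vs G1/S (difference of NP-40 vs SDS log2 ratios): synchronized HeLa Kyoto cells (double thymidine block for G1/S, nocodazole release for mitosis), protein amounts in NP-40 versus SDS lysates quantified by mass spectrometry, three biological replicates.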
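Throughout, for solubility in G1/S (NP-40 vs SDS abundance): HeLa Kyoto cells arrested at G1/S by double thymidine block, proteins quantified by TMT10plex mass spectrometry in mild NP-40 versus SDS extracts, three biological replicates.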

As for “MMVESASETIRSAPSGQNGVGSLSGQADGSSGGATGTTASGTGREVTTGADSNGEMSPAELLHFQQQQALQVARQFLLQQASGLSSPGNNDSKQSASAVQVPVSVAMMSPQMLTPQQMQQILSPPQLQALLQQQQALMLQQLQEYYKKQQEQLHLQLLTQQQAGKPQPKEALGNKQLAFQQQLLQMQQLQQQHLLNLQRQGLVSLQPNQASGPLQTLPQAAVCPTDLPQLWKGEGAPGQPAEDSVKQEGLDLTGTAATATSFAAPPKVSPPLSHHTLPNGQPTVLTSRRDSSSHEETPGSHPLYGHGECKWPGCETLCEDLGQFIKHLNTEHALDDRSTAQCRVQMQVVQQLEIQLAKESERLQAMMAHLHMRPSEPKPFSQPLNPVPGSSSFSKVTVSAADSFPDGLVHPPTSAAAPVTPLRPPGLGSASLHGGGPARRRSSDKFCSPISSELAQNHEFYKNADVRPPFTYASLIRQAILETPDRQLTLNEIYNWFTRMFAYFRRNTATWKNAVRHNLSLHKCFVRVENVKGAVWTVDEREYQKRRPPKMTGSPTLVKNMISGLSYGALNASYQAALAESSFPLLNSPGMLNPGSASSLLPLSHDDVGAPVEPLPSNGSSSPPRLSPPQYSHQVQVKEEPAEAEEDRQPGPPLGAPNPSASGPPEDRDLEEELPGEELS [FOXP4]”, the “solubility in G1/S (log2)” value in the series on HeLa Kyoto [1] is 0.393. The “solubility change mitosis (log2)” value in the series with HeLa Kyoto [2] was -0.162.
Regarding “MSISLSSLILLPIWINMAQIQQGGPDEKEKTTALKDLLSRIDLDELMKKDEPPLDFPDTLEGFEYAFNEKGQLRHIKTGEPFVFNYREDLHRWNQKRYEALGEIITKYVYELLEKDCNLKKVSIPVDATESEPKSFIFMSEDALTNPQKLMVLIHGSGVVRAGQWARRLIINEDLDSGTQIPFIKRAVAEGYGVIVLNPNENYIEVEKPKIHVQSSSDSSDEPAEKRERKDKVSKETKKRRDFYEKYRNPQREKEMMQLYIRENGSPEEHAIYVWDHFIAQAAAENVFFVAHSYGGLAFVELMIQREADVKNKVTAVALTDSVHNVWHQEAGKTIREWMRENCCNWVSSSEPLDTSVESMLPDCPRVSAGTDRHELTSWKSFPSIFKFFTEASEAKTSSLKPAVTRRSHRIKHEEL [FAM172A]”, the “solubility in G1/S (log2)” value in the series on HeLa Kyoto [1] came out at 0.202. Further, in the series with HeLa Kyoto [2], the “solubility change mitosis (log2)” value is -0.00146.
Take “MASSSGSSPRPAPDENEFPFGCPPTVCQDPKEPRALCCAGCLSENPRNGEDQICPKCRGEDLQSISPGSRLRTQEKAHPEVAEAGIGCPFAGVGCSFKGSPQSVQEHEVTSQTSHLNLLLGFMKQWKARLGCGLESGPMALEQNLSDLQLQAAVEVAGDLEVDCYRAPCSESQEELALQHFMKEKLLAELEGKLRVFENIVAVLNKEVEASHLALATSIHQSQLDRERILSLEQRVVELQQTLAQKDQALGKLEQSLRLMEEASFDGTFLWKITNVTRRCHESACGRTVSLFSPAFYTAKYGYKLCLRLYLNGDGTGKRTHLSLFIVIMRGEYDALLPWPFRNKVTFMLLDQNNREHAIDAFRPDLSSASFQRPQSETNVASGCPLFFPLSKLQSPKHAYVKDDTMFLKCIVETST [TRAF1]”: in the series with HeLa Kyoto [1], the “solubility in G1/S (log2)” value worked out at 0.254. In addition, the “solubility change mitosis (log2)” value with HeLa Kyoto [2] was -0.305.
